{"source": "the supplement of paper PMC7125110", "parents": {"B1": {"name": "glmS ribozyme (parent)", "chain": "AUAAAAGCGCCAGAACUACAGAAAUGUAGUUGACGAGGAGGAGGUUUAUCGAAUUUUCGGCGGAUGCCUCCAAA"}}, "settings_in_all_cases": "with glucosamine-6-phosphate", "key": {"glucosamine-6-phosphate [1]": {"variants_of": "B1", "assay": "self-cleavage kobs at 40 uM GlcN6P; higher = faster cleavage; RNA array", "outline": "(§1)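 Ribozyme variants carrying barcodes were transcribed in situ on sequenced MiSeq chips by E. coli RNA polymerase and tracked at 37 °C with a hybridised Cy3 probe. They were exposed to 40 μM to 10 mM glucosamine-6-phosphate in HEPES/KCl/Mg(OAc)2 buffer. kobs came from exponential decay fits of normalised per-tile medians, and kcat and KM from weighted Michaelis–Menten fits.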"}, "glucosamine-6-phosphate [2]": {"variants_of": "B1", "assay": "self-cleavage kobs at 160 uM GlcN6P; higher = faster cleavage; RNA array", "outline": "as §1"}, "glucosamine-6-phosphate [3]": {"variants_of": "B1", "assay": "self-cleavage kobs at 640 uM GlcN6P; higher = faster cleavage; RNA array", "outline": "as §1"}, "glucosamine-6-phosphate [4]": {"variants_of": "B1", "assay": "self-cleavage kobs at 2500 uM GlcN6P; higher = faster cleavage; RNA array", "outline": "as §1"}, "glucosamine-6-phosphate [5]": {"variants_of": "B1", "assay": "self-cleavage kobs at 10000 uM GlcN6P; higher = faster cleavage; RNA array", "outline": "as §1"}}, "note": "± gives the standard error. This sample holds only a part of the variants without activity.", "data": [{"variant": "G35A U69A", "values": [{"measurement": "self-cleavage kobs at 40 uM GlcN6P", "setting": "glucosamine-6-phosphate [1]", "result": "< 1e-05", "unit": "s⁻¹"}, {"measurement": "self-cleavage kobs at 160 uM GlcN6P", "setting": "glucosamine-6-phosphate [2]", "result": "< 1e-05", "unit": "s⁻¹"}, {"measurement": "self-cleavage kobs at 640 uM GlcN6P", "setting": "glucosamine-6-phosphate [3]", "result": "< 1e-05", "unit": "s⁻¹"}, {"measurement": "self-cleavage kobs at 2500 uM GlcN6P", "setting": "glucosamine-6-phosphate [4]", "result": "< 1e-05", "unit": "s⁻¹"}]}, {"variant": "U31G A39C G44C", "values": [{"measurement": "self-cleavage kobs at 40 uM GlcN6P", "setting": "glucosamine-6-phosphate [1]", "result": "< 1e-05", "unit": "s⁻¹"}]}, {"variant": "G29C U30C A33C A42G U55A U56A", "values": [{"measurement": "self-cleavage kobs at 40 uM GlcN6P", "setting": "glucosamine-6-phosphate [1]", "result": "< 1e-05", "unit": "s⁻¹"}, {"measurement": "self-cleavage kobs at 10000 uM GlcN6P", "setting": "glucosamine-6-phosphate [5]", "result": "< 1e-05", "unit": "s⁻¹"}]}, {"variant": "U31G A42G", "values": [{"measurement": "self-cleavage kobs at 40 uM GlcN6P", "setting": "glucosamine-6-phosphate [1]", "result": "0.00033 ± 8.8e-05", "unit": "s⁻¹"}, {"measurement": "self-cleavage kobs at 640 uM GlcN6P", "setting": "glucosamine-6-phosphate [3]", "result": "0.00343 ± 0.0011", "unit": "s⁻¹"}, {"measurement": "self-cleavage kobs at 2500 uM GlcN6P", "setting": "glucosamine-6-phosphate [4]", "result": "0.00724 ± 0.0018", "unit": "s⁻¹"}, {"measurement": "self-cleavage kobs at 10000 uM GlcN6P", "setting": "glucosamine-6-phosphate [5]", "result": "0.0263 ± 0.0086", "unit": "s⁻¹"}]}, {"variant": "G35C A42U U45C G59U", "values": [{"measurement": "self-cleavage kobs at 40 uM GlcN6P", "setting": "glucosamine-6-phosphate [1]", "result": "< 1e-05", "unit": "s⁻¹"}]}, {"variant": "C50A G59C", "values": [{"measurement": "self-cleavage kobs at 40 uM GlcN6P", "setting": "glucosamine-6-phosphate [1]", "result": "< 1e-05", "unit": "s⁻¹"}, {"measurement": "self-cleavage kobs at 640 uM GlcN6P", "setting": "glucosamine-6-phosphate [3]", "result": "< 1e-05", "unit": "s⁻¹"}, {"measurement": "self-cleavage kobs at 2500 uM GlcN6P", "setting": "glucosamine-6-phosphate [4]", "result": "< 1e-05", "unit": "s⁻¹"}, {"measurement": "self-cleavage kobs at 10000 uM GlcN6P", "setting": "glucosamine-6-phosphate [5]", "result": "< 1e-05", "unit": "s⁻¹"}]}, {"variant": "A6C C8G", "values": [{"measurement": "self-cleavage kobs at 40 uM GlcN6P", "setting": "glucosamine-6-phosphate [1]", "result": "< 1e-05", "unit": "s⁻¹"}, {"measurement": "self-cleavage kobs at 640 uM GlcN6P", "setting": "glucosamine-6-phosphate [3]", "result": "< 1e-05", "unit": "s⁻¹"}, {"measurement": "self-cleavage kobs at 2500 uM GlcN6P", "setting": "glucosamine-6-phosphate [4]", "result": "< 1e-05", "unit": "s⁻¹"}, {"measurement": "self-cleavage kobs at 10000 uM GlcN6P", "setting": "glucosamine-6-phosphate [5]", "result": "< 1e-05", "unit": "s⁻¹"}]}, {"variant": "C8G U31A A36G", "values": [{"measurement": "self-cleavage kobs at 40 uM GlcN6P", "setting": "glucosamine-6-phosphate [1]", "result": "< 1e-05", "unit": "s⁻¹"}]}, {"variant": "G7U U55G", "values": [{"measurement": "self-cleavage kobs at 40 uM GlcN6P", "setting": "glucosamine-6-phosphate [1]", "result": "< 1e-05", "unit": "s⁻¹"}, {"measurement": "self-cleavage kobs at 160 uM GlcN6P", "setting": "glucosamine-6-phosphate [2]", "result": "< 1e-05", "unit": "s⁻¹"}, {"measurement": "self-cleavage kobs at 10000 uM GlcN6P", "setting": "glucosamine-6-phosphate [5]", "result": "< 1e-05", "unit": "s⁻¹"}]}, {"variant": "A42G U46C A48U", "values": [{"measurement": "self-cleavage kobs at 40 uM GlcN6P", "setting": "glucosamine-6-phosphate [1]", "result": "< 1e-05", "unit": "s⁻¹"}]}, {"variant": "G7A G9C C16G", "values": [{"measurement": "self-cleavage kobs at 40 uM GlcN6P", "setting": "glucosamine-6-phosphate [1]", "result": "< 1e-05", "unit": "s⁻¹"}, {"measurement": "self-cleavage kobs at 160 uM GlcN6P", "setting": "glucosamine-6-phosphate [2]", "result": "< 1e-05", "unit": "s⁻¹"}, {"measurement": "self-cleavage kobs at 640 uM GlcN6P", "setting": "glucosamine-6-phosphate [3]", "result": "< 1e-05", "unit": "s⁻¹"}, {"measurement": "self-cleavage kobs at 10000 uM GlcN6P", "setting": "glucosamine-6-phosphate [5]", "result": "< 1e-05", "unit": "s⁻¹"}]}, {"variant": "U30A C68A", "values": [{"measurement": "self-cleavage kobs at 40 uM GlcN6P", "setting": "glucosamine-6-phosphate [1]", "result": "< 1e-05", "unit": "s⁻¹"}]}, {"variant": "A36U U65G", "values": [{"measurement": "self-cleavage kobs at 40 uM GlcN6P", "setting": "glucosamine-6-phosphate [1]", "result": "< 1e-05", "unit": "s⁻¹"}, {"measurement": "self-cleavage kobs at 160 uM GlcN6P", "setting": "glucosamine-6-phosphate [2]", "result": "< 1e-05", "unit": "s⁻¹"}, {"measurement": "self-cleavage kobs at 10000 uM GlcN6P", "setting": "glucosamine-6-phosphate [5]", "result": "< 1e-05", "unit": "s⁻¹"}]}, {"variant": "U30A C50G", "values": [{"measurement": "self-cleavage kobs at 40 uM GlcN6P", "setting": "glucosamine-6-phosphate [1]", "result": "3.17e-05 ± 1.5e-05", "unit": "s⁻¹"}, {"measurement": "self-cleavage kobs at 160 uM GlcN6P", "setting": "glucosamine-6-phosphate [2]", "result": "6.28e-05 ± 1.6e-05", "unit": "s⁻¹"}, {"measurement": "self-cleavage kobs at 640 uM GlcN6P", "setting": "glucosamine-6-phosphate [3]", "result": "0.00128 ± 0.0005", "unit": "s⁻¹"}, {"measurement": "self-cleavage kobs at 2500 uM GlcN6P", "setting": "glucosamine-6-phosphate [4]", "result": "6.93e-05 ± 1.6e-05", "unit": "s⁻¹"}]}, {"variant": "G35C G63U C71A", "values": [{"measurement": "self-cleavage kobs at 40 uM GlcN6P", "setting": "glucosamine-6-phosphate [1]", "result": "< 1e-05", "unit": "s⁻¹"}, {"measurement": "self-cleavage kobs at 2500 uM GlcN6P", "setting": "glucosamine-6-phosphate [4]", "result": "< 1e-05", "unit": "s⁻¹"}, {"measurement": "self-cleavage kobs at 10000 uM GlcN6P", "setting": "glucosamine-6-phosphate [5]", "result": "< 1e-05", "unit": "s⁻¹"}]}, {"variant": "A15C G37A G41C U69G", "values": [{"measurement": "self-cleavage kobs at 40 uM GlcN6P", "setting": "glucosamine-6-phosphate [1]", "result": "< 1e-05", "unit": "s⁻¹"}, {"measurement": "self-cleavage kobs at 10000 uM GlcN6P", "setting": "glucosamine-6-phosphate [5]", "result": "< 1e-05", "unit": "s⁻¹"}]}, {"variant": "U30C G40A A52G U55C C61G", "values": [{"measurement": "self-cleavage kobs at 40 uM GlcN6P", "setting": "glucosamine-6-phosphate [1]", "result": "< 1e-05", "unit": "s⁻¹"}, {"measurement": "self-cleavage kobs at 10000 uM GlcN6P", "setting": "glucosamine-6-phosphate [5]", "result": "< 1e-05", "unit": "s⁻¹"}]}, {"variant": "A33U G38U G40U", "values": [{"measurement": "self-cleavage kobs at 40 uM GlcN6P", "setting": "glucosamine-6-phosphate [1]", "result": "< 1e-05", "unit": "s⁻¹"}]}, {"variant": "A6C G13U A53U", "values": [{"measurement": "self-cleavage kobs at 40 uM GlcN6P", "setting": "glucosamine-6-phosphate [1]", "result": "< 1e-05", "unit": "s⁻¹"}, {"measurement": "self-cleavage kobs at 10000 uM GlcN6P", "setting": "glucosamine-6-phosphate [5]", "result": "< 1e-05", "unit": "s⁻¹"}]}, {"variant": "A53G U54C", "values": [{"measurement": "self-cleavage kobs at 40 uM GlcN6P", "setting": "glucosamine-6-phosphate [1]", "result": "0.000508 ± 7.8e-05", "unit": "s⁻¹"}, {"measurement": "self-cleavage kobs at 160 uM GlcN6P", "setting": "glucosamine-6-phosphate [2]", "result": "0.000991 ± 0.00024", "unit": "s⁻¹"}, {"measurement": "self-cleavage kobs at 10000 uM GlcN6P", "setting": "glucosamine-6-phosphate [5]", "result": "0.0169 ± 0.0033", "unit": "s⁻¹"}]}, {"variant": "C10G A33G A52U C58U A64U", "values": [{"measurement": "self-cleavage kobs at 40 uM GlcN6P", "setting": "glucosamine-6-phosphate [1]", "result": "< 1e-05", "unit": "s⁻¹"}]}, {"variant": "C10G A53C A64G", "values": [{"measurement": "self-cleavage kobs at 40 uM GlcN6P", "setting": "glucosamine-6-phosphate [1]", "result": "< 1e-05", "unit": "s⁻¹"}, {"measurement": "self-cleavage kobs at 160 uM GlcN6P", "setting": "glucosamine-6-phosphate [2]", "result": "< 1e-05", "unit": "s⁻¹"}, {"measurement": "self-cleavage kobs at 640 uM GlcN6P", "setting": "glucosamine-6-phosphate [3]", "result": "< 1e-05", "unit": "s⁻¹"}, {"measurement": "self-cleavage kobs at 2500 uM GlcN6P", "setting": "glucosamine-6-phosphate [4]", "result": "< 1e-05", "unit": "s⁻¹"}, {"measurement": "self-cleavage kobs at 10000 uM GlcN6P", "setting": "glucosamine-6-phosphate [5]", "result": "< 1e-05", "unit": "s⁻¹"}]}, {"variant": "A6C G62A", "values": [{"measurement": "self-cleavage kobs at 40 uM GlcN6P", "setting": "glucosamine-6-phosphate [1]", "result": "< 1e-05", "unit": "s⁻¹"}, {"measurement": "self-cleavage kobs at 160 uM GlcN6P", "setting": "glucosamine-6-phosphate [2]", "result": "< 1e-05", "unit": "s⁻¹"}, {"measurement": "self-cleavage kobs at 640 uM GlcN6P", "setting": "glucosamine-6-phosphate [3]", "result": "< 1e-05", "unit": "s⁻¹"}]}, {"variant": "A12U G32C C67U", "values": [{"measurement": "self-cleavage kobs at 40 uM GlcN6P", "setting": "glucosamine-6-phosphate [1]", "result": "< 1e-05", "unit": "s⁻¹"}]}, {"variant": "A36G U56G", "values": [{"measurement": "self-cleavage kobs at 40 uM GlcN6P", "setting": "glucosamine-6-phosphate [1]", "result": "< 1e-05", "unit": "s⁻¹"}, {"measurement": "self-cleavage kobs at 640 uM GlcN6P", "setting": "glucosamine-6-phosphate [3]", "result": "< 1e-05", "unit": "s⁻¹"}]}, {"variant": "A39C G63U", "values": [{"measurement": "self-cleavage kobs at 40 uM GlcN6P", "setting": "glucosamine-6-phosphate [1]", "result": "< 1e-05", "unit": "s⁻¹"}, {"measurement": "self-cleavage kobs at 640 uM GlcN6P", "setting": "glucosamine-6-phosphate [3]", "result": "< 1e-05", "unit": "s⁻¹"}, {"measurement": "self-cleavage kobs at 10000 uM GlcN6P", "setting": "glucosamine-6-phosphate [5]", "result": "< 1e-05", "unit": "s⁻¹"}]}]}
